Assay results from PMC12130304.

Target: C-terminal, Twin-Strep-HA-tagged AVRA13-1 (Blumeria hordei)
Experiment: SEC + other: negative-stain TEM

N-terminal, GST-tagged MLA13^K98E/K100E (receptor)
stoichiometry N: 1
